From patent US20190144529A1 (UCB, published 2019)
Read-outs that look alike come from different tables or passages of the source.

Assays:
human serum albumin [1] = molecular target: T1, human serum albumin (human, UniProt P02768 25-609); experiment: SPR, Fab captured; albumin taken as HSA
T1 construct: mature; Bought purified serum albumin; also called HSA; Human albumin
Experimental: (§1) Each assay cycle consisted of firstly capturing the antibody sample using a 1 min injection, before an association phase consisting of a 3 min injection of albumin, after which dissociation was monitored. After each cycle, the capture surface was regenerated with two 1 min injections of 40 mM HCl followed by 30 s of 5 mM NaOH. The flow rates used were 10 μl/min for capture, 30 μl/min for both the association and dissociation phases, and 10 μl/min for regeneration. A blank flow-cell was used for reference subtraction and buffer-blank injections were included to subtract instrument noise and drift.

human serum albumin [2] = molecular target: T1, human serum albumin; experiment: SPR, Fab captured; albumin taken as HSA; remark: listed apart in the source
Experimental: as §1

B1: CA645 gL4gH31 Fab (Fab, V domains shown)
VH: EVQLLESGGGLVQPGGSLRLSCAVSGIDLSNYAINWVRQAPGKGLEWIGIIWAVGTTFYATWAKGRFTISRDNSKNTVYLQMNSLRAEDTAVYYCARTVPGYSTAPYFDLWGQGTLVTVSS
VL: DIQMTQSPSSVSASVGDRVTITCQSSPSVWSNFLSWYQQKPGKAPKLLIYEASKLTSGVPSRFSGSGSGTDFTLTISSLQPEDFATYYCGGGYSSISDTTFGGGTKVEIK
notes: Fab: human gamma1 CH1, human kappa (Km3); Kabat numbering
Kd (human serum albumin [1]): 4.18 nM
koff (human serum albumin [1]): 0.000167 s⁻¹
kon (human serum albumin [1]): 40000 M⁻¹ s⁻¹

B2: CA645 gL20gH5 Fab (Fab, V domains shown)
VH: EVQLLESGGGLVQPGGSLRLSCAVSGIDLSNYAINWVRQAPGKGLEWIGIIWASGTTFYATWAKGRFTISRDNSKNTVYLQMNSLRAEDTAVYYCARTVPGYSTAPYFDLWGQGTLVTVSS
VL: DIQMTQSPSSVSASVGDRVTITCQSSPSVWQNFLSWYQQKPGKAPKLLIYEASKLTSGVPSRFSGSGSGTDFTLTISSLQPEDFATYYCGGGYSSISDTTFGGGTKVEIK
notes: as for B1
Kd (human serum albumin [1]): 14.3 nM
koff (human serum albumin [1]): 0.000794 s⁻¹
kon (human serum albumin [1]): 55500 M⁻¹ s⁻¹

B3: CA645 gL16gH5 Fab (Fab, V domains shown)
VH: EVQLLESGGGLVQPGGSLRLSCAVSGIDLSNYAINWVRQAPGKGLEWIGIIWASGTTFYATWAKGRFTISRDNSKNTVYLQMNSLRAEDTAVYYCARTVPGYSTAPYFDLWGQGTLVTVSS
VL: DIQMTQSPSSVSASVGDRVTITCQSSPSVWWNFLSWYQQKPGKAPKLLIYEASKLTSGVPSRFSGSGSGTDFTLTISSLQPEDFATYYCGGGYSSISDTTFGGGTKVEIK
notes: as for B1
Kd (human serum albumin [1]): 3.06 nM
koff (human serum albumin [1]): 0.000169 s⁻¹
kon (human serum albumin [1]): 55300 M⁻¹ s⁻¹

B4: CA645 gL21gH5 Fab (Fab, V domains shown)
VH: EVQLLESGGGLVQPGGSLRLSCAVSGIDLSNYAINWVRQAPGKGLEWIGIIWASGTTFYATWAKGRFTISRDNSKNTVYLQMNSLRAEDTAVYYCARTVPGYSTAPYFDLWGQGTLVTVSS
VL: DIQMTQSPSSVSASVGDRVTITCQSSPSVWENFLSWYQQKPGKAPKLLIYEASKLTSGVPSRFSGSGSGTDFTLTISSLQPEDFATYYCGGGYSSISDTTFGGGTKVEIK
notes: as for B1
Kd (human serum albumin [1]): 6.34 nM
koff (human serum albumin [1]): 0.000323 s⁻¹
kon (human serum albumin [1]): 51000 M⁻¹ s⁻¹

B5: CA645 gL25gH5 Fab (Fab, V domains shown)
VH: EVQLLESGGGLVQPGGSLRLSCAVSGIDLSNYAINWVRQAPGKGLEWIGIIWASGTTFYATWAKGRFTISRDNSKNTVYLQMNSLRAEDTAVYYCARTVPGYSTAPYFDLWGQGTLVTVSS
VL: DIQMTQSPSSVSASVGDRVTITCQSSPSVWFNFLSWYQQKPGKAPKLLIYEASKLTSGVPSRFSGSGSGTDFTLTISSLQPEDFATYYCGGGYSSISDTTFGGGTKVEIK
notes: as for B1
Kd (human serum albumin [1]): 3.85 nM
koff (human serum albumin [1]): 0.000217 s⁻¹
kon (human serum albumin [1]): 56200 M⁻¹ s⁻¹

B6: CA645 gL11gH5 Fab (Fab, V domains shown)
VH: EVQLLESGGGLVQPGGSLRLSCAVSGIDLSNYAINWVRQAPGKGLEWIGIIWASGTTFYATWAKGRFTISRDNSKNTVYLQMNSLRAEDTAVYYCARTVPGYSTAPYFDLWGQGTLVTVSS
VL: DIQMTQSPSSVSASVGDRVTITCQSSPNVWSNFLSWYQQKPGKAPKLLIYEASKLTSGVPSRFSGSGSGTDFTLTISSLQPEDFATYYCGGGYSSISDTTFGGGTKVEIK
notes: as for B1
Kd (human serum albumin [2]): 4.42 nM
koff (human serum albumin [2]): 0.000249 s⁻¹
kon (human serum albumin [2]): 56400 M⁻¹ s⁻¹

B7: CA645 gL23gH5 Fab (Fab, V domains shown)
VH: EVQLLESGGGLVQPGGSLRLSCAVSGIDLSNYAINWVRQAPGKGLEWIGIIWASGTTFYATWAKGRFTISRDNSKNTVYLQMNSLRAEDTAVYYCARTVPGYSTAPYFDLWGQGTLVTVSS
VL: DIQMTQSPSSVSASVGDRVTITCQSSPSVWLNFLSWYQQKPGKAPKLLIYEASKLTSGVPSRFSGSGSGTDFTLTISSLQPEDFATYYCGGGYSSISDTTFGGGTKVEIK
notes: as for B1
Kd (human serum albumin [1]): 14.8 nM
koff (human serum albumin [1]): 0.000814 s⁻¹
kon (human serum albumin [1]): 54900 M⁻¹ s⁻¹

B8: CA645 gL4gH35 Fab (Fab, V domains shown)
VH: EVQLLESGGGLVQPGGSLRLSCAVSGIDLSNYAINWVRQAPGKGLEWIGIIWAEGTTFYATWAKGRFTISRDNSKNTVYLQMNSLRAEDTAVYYCARTVPGYSTAPYFDLWGQGTLVTVSS
VL: DIQMTQSPSSVSASVGDRVTITCQSSPSVWSNFLSWYQQKPGKAPKLLIYEASKLTSGVPSRFSGSGSGTDFTLTISSLQPEDFATYYCGGGYSSISDTTFGGGTKVEIK
notes: as for B1
Kd (human serum albumin [1]): 15.1 nM
koff (human serum albumin [1]): 0.000399 s⁻¹
kon (human serum albumin [1]): 26500 M⁻¹ s⁻¹

B9: CA645 gL15gH5 Fab (Fab, V domains shown)
VH: EVQLLESGGGLVQPGGSLRLSCAVSGIDLSNYAINWVRQAPGKGLEWIGIIWASGTTFYATWAKGRFTISRDNSKNTVYLQMNSLRAEDTAVYYCARTVPGYSTAPYFDLWGQGTLVTVSS
VL: DIQMTQSPSSVSASVGDRVTITCQSSPSVWRNFLSWYQQKPGKAPKLLIYEASKLTSGVPSRFSGSGSGTDFTLTISSLQPEDFATYYCGGGYSSISDTTFGGGTKVEIK
notes: as for B1
Kd (human serum albumin [1]): 4.62 nM
koff (human serum albumin [1]): 0.000277 s⁻¹
kon (human serum albumin [1]): 60100 M⁻¹ s⁻¹

B10: CA645 gL17gH5 Fab (Fab, V domains shown)
VH: EVQLLESGGGLVQPGGSLRLSCAVSGIDLSNYAINWVRQAPGKGLEWIGIIWASGTTFYATWAKGRFTISRDNSKNTVYLQMNSLRAEDTAVYYCARTVPGYSTAPYFDLWGQGTLVTVSS
VL: DIQMTQSPSSVSASVGDRVTITCQSSPSVWNNFLSWYQQKPGKAPKLLIYEASKLTSGVPSRFSGSGSGTDFTLTISSLQPEDFATYYCGGGYSSISDTTFGGGTKVEIK
notes: as for B1
Kd (human serum albumin [1]): 5.5 nM
koff (human serum albumin [1]): 0.000323 s⁻¹
kon (human serum albumin [1]): 58800 M⁻¹ s⁻¹

B11: CA645 gL4gH32 Fab (Fab, V domains shown)
VH: EVQLLESGGGLVQPGGSLRLSCAVSGIDLSNYAINWVRQAPGKGLEWIGIIWAIGTTFYATWAKGRFTISRDNSKNTVYLQMNSLRAEDTAVYYCARTVPGYSTAPYFDLWGQGTLVTVSS
VL: DIQMTQSPSSVSASVGDRVTITCQSSPSVWSNFLSWYQQKPGKAPKLLIYEASKLTSGVPSRFSGSGSGTDFTLTISSLQPEDFATYYCGGGYSSISDTTFGGGTKVEIK
notes: as for B1
Kd (human serum albumin [1]): 4.38 nM
koff (human serum albumin [1]): 0.000169 s⁻¹
kon (human serum albumin [1]): 38600 M⁻¹ s⁻¹

B12: CA645 gL4gH34 Fab (Fab, V domains shown)
VH: EVQLLESGGGLVQPGGSLRLSCAVSGIDLSNYAINWVRQAPGKGLEWIGIIWAQGTTFYATWAKGRFTISRDNSKNTVYLQMNSLRAEDTAVYYCARTVPGYSTAPYFDLWGQGTLVTVSS
VL: DIQMTQSPSSVSASVGDRVTITCQSSPSVWSNFLSWYQQKPGKAPKLLIYEASKLTSGVPSRFSGSGSGTDFTLTISSLQPEDFATYYCGGGYSSISDTTFGGGTKVEIK
notes: as for B1
Kd (human serum albumin [1]): 11 nM
koff (human serum albumin [1]): 0.000422 s⁻¹
kon (human serum albumin [1]): 38500 M⁻¹ s⁻¹

B13: CA645 gL24gH5 Fab (Fab, V domains shown)
VH: EVQLLESGGGLVQPGGSLRLSCAVSGIDLSNYAINWVRQAPGKGLEWIGIIWASGTTFYATWAKGRFTISRDNSKNTVYLQMNSLRAEDTAVYYCARTVPGYSTAPYFDLWGQGTLVTVSS
VL: DIQMTQSPSSVSASVGDRVTITCQSSPSVWVNFLSWYQQKPGKAPKLLIYEASKLTSGVPSRFSGSGSGTDFTLTISSLQPEDFATYYCGGGYSSISDTTFGGGTKVEIK
notes: as for B1
Kd (human serum albumin [1]): 16.1 nM
koff (human serum albumin [1]): 0.000883 s⁻¹
kon (human serum albumin [1]): 54700 M⁻¹ s⁻¹

B14: CA645 gL19gH5 Fab (Fab, V domains shown)
VH: EVQLLESGGGLVQPGGSLRLSCAVSGIDLSNYAINWVRQAPGKGLEWIGIIWASGTTFYATWAKGRFTISRDNSKNTVYLQMNSLRAEDTAVYYCARTVPGYSTAPYFDLWGQGTLVTVSS
VL: DIQMTQSPSSVSASVGDRVTITCQSSPSVWDNFLSWYQQKPGKAPKLLIYEASKLTSGVPSRFSGSGSGTDFTLTISSLQPEDFATYYCGGGYSSISDTTFGGGTKVEIK
notes: as for B1
Kd (human serum albumin [1]): 5 nM
koff (human serum albumin [1]): 0.00026 s⁻¹
kon (human serum albumin [1]): 52000 M⁻¹ s⁻¹

B15: CA645 gL18gH5 Fab (Fab, V domains shown)
VH: EVQLLESGGGLVQPGGSLRLSCAVSGIDLSNYAINWVRQAPGKGLEWIGIIWASGTTFYATWAKGRFTISRDNSKNTVYLQMNSLRAEDTAVYYCARTVPGYSTAPYFDLWGQGTLVTVSS
VL: DIQMTQSPSSVSASVGDRVTITCQSSPSVWINFLSWYQQKPGKAPKLLIYEASKLTSGVPSRFSGSGSGTDFTLTISSLQPEDFATYYCGGGYSSISDTTFGGGTKVEIK
notes: as for B1
Kd (human serum albumin [1]): 15.5 nM
koff (human serum albumin [1]): 0.000823 s⁻¹
kon (human serum albumin [1]): 53200 M⁻¹ s⁻¹

B16: CA645 gL22gH5 Fab (Fab, V domains shown)
VH: EVQLLESGGGLVQPGGSLRLSCAVSGIDLSNYAINWVRQAPGKGLEWIGIIWASGTTFYATWAKGRFTISRDNSKNTVYLQMNSLRAEDTAVYYCARTVPGYSTAPYFDLWGQGTLVTVSS
VL: DIQMTQSPSSVSASVGDRVTITCQSSPSVWHNFLSWYQQKPGKAPKLLIYEASKLTSGVPSRFSGSGSGTDFTLTISSLQPEDFATYYCGGGYSSISDTTFGGGTKVEIK
notes: as for B1
Kd (human serum albumin [1]): 8.58 nM
koff (human serum albumin [1]): 0.000478 s⁻¹
kon (human serum albumin [1]): 55700 M⁻¹ s⁻¹

B17: CA645 gL4gH33 Fab (Fab, V domains shown)
VH: EVQLLESGGGLVQPGGSLRLSCAVSGIDLSNYAINWVRQAPGKGLEWIGIIWALGTTFYATWAKGRFTISRDNSKNTVYLQMNSLRAEDTAVYYCARTVPGYSTAPYFDLWGQGTLVTVSS
VL: DIQMTQSPSSVSASVGDRVTITCQSSPSVWSNFLSWYQQKPGKAPKLLIYEASKLTSGVPSRFSGSGSGTDFTLTISSLQPEDFATYYCGGGYSSISDTTFGGGTKVEIK
notes: as for B1
Kd (human serum albumin [1]): 6.18 nM
koff (human serum albumin [1]): 0.00024 s⁻¹
kon (human serum albumin [1]): 38900 M⁻¹ s⁻¹

B18: CA645 gL4gH46 Fab (Fab, V domains shown)
VH: EVQLLESGGGLVQPGGSLRLSCAVSGIDLSNYAINWVRQAPGKGLEWIGIIWASGTTFYATWAKGRFTISRDNSKNTVYLQMNSLRAEDTAVYYCARTYPGYSTAPYFDLWGQGTLVTVSS
VL: DIQMTQSPSSVSASVGDRVTITCQSSPSVWSNFLSWYQQKPGKAPKLLIYEASKLTSGVPSRFSGSGSGTDFTLTISSLQPEDFATYYCGGGYSSISDTTFGGGTKVEIK
notes: as for B1
Kd (human serum albumin [2]): 3.26 nM
koff (human serum albumin [2]): 0.000184 s⁻¹
kon (human serum albumin [2]): 56400 M⁻¹ s⁻¹

B19: CA645 gL26gH5 Fab (Fab, V domains shown)
VH: EVQLLESGGGLVQPGGSLRLSCAVSGIDLSNYAINWVRQAPGKGLEWIGIIWASGTTFYATWAKGRFTISRDNSKNTVYLQMNSLRAEDTAVYYCARTVPGYSTAPYFDLWGQGTLVTVSS
VL: DIQMTQSPSSVSASVGDRVTITCQSSPSVWYNFLSWYQQKPGKAPKLLIYEASKLTSGVPSRFSGSGSGTDFTLTISSLQPEDFATYYCGGGYSSISDTTFGGGTKVEIK
notes: as for B1
Kd (human serum albumin [1]): 4.13 nM
koff (human serum albumin [1]): 0.000248 s⁻¹
kon (human serum albumin [1]): 60100 M⁻¹ s⁻¹
